Assay results reported in the supplement of paper PMC9170038.

System: MS2 coat protein
Assay: apparent KD of MS2 coat protein; designed switch direction (-1 OFF switch, 1 ON switch): 1; higher = weaker reporter binding
Summary of the method: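 Apparent KD, taken as the median over clusters for each design, was obtained by curve-fitting normalised cluster fluorescence. Designed RNA switches had been transcribed on Illumina chips by stalled E. coli RNA polymerase and titrated with SNAP-549-labelled MS2 coat protein, doubling from 0.7 or 1.5 nM to 3 µM.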

[1] = Eterna round: R95, input ligand: FMN 200 uM
[2] = Eterna round: R95, input ligand: microRNA oligo, concentration not stated
[3] = Eterna round: R95, input ligand: none
[4] = input ligand: microRNA oligo, concentration not stated

In the case of “UGCCAUAGUAUAUUGGUACGUGCUUUUUGACAUGAGGAUCACCCAUGUCCUCGUCAUAUGCGCAGUCCGUAGACUGC (puzzle: Sensor for hsa-mir-208a)”, the “apparent KD of MS2 coat protein” value [1] was 328 nM, the “apparent KD of MS2 coat protein” value [2] was 234 nM and the “apparent KD of MS2 coat protein” value [3] was 374 nM.

For “GGAAUAUUUACAGGAUAUGAGUUGUAAAGUCGAUCAGAAGGGUAGAUGUCUUACACGGUUUGUUACAUGAGGAUCACCCAUGUU [SameState NG1 #18] (Eterna round: R96, puzzle: Same State NG 1)”, the “apparent KD of MS2 coat protein” value (input ligand: FMN 200 uM) was 66.9 nM, the “apparent KD of MS2 coat protein” value [4] was 75.6 nM and the “apparent KD of MS2 coat protein” value (input ligand: none) was 86.6 nM.

In the case of “AUAGUUAGCGAAGGAUAUGGGAAAGGAAGUGUACCAGAAGGUCGGCUACUGGGCUUACAUGAGGAUCACCCAUGUCCCGGUAGC [PowerStrip SSNG 1.13] (Eterna round: R96, puzzle: Same State NG 1)”, the “apparent KD of MS2 coat protein” value (input ligand: FMN 200 uM) was 10.1 nM, the “apparent KD of MS2 coat protein” value [4] was 9.15 nM and the “apparent KD of MS2 coat protein” value (input ligand: none) was 12.2 nM.

“GAGCUCGUGUGAGGAUAUGCCGCCGUUUCGGCUGCAGAAGGUGCUACGUUACAUGAGGAUCACCCAUGUCUCUGUUGUUUCGUC [salish99_SSNG1_r04_961] (Eterna round: R96, puzzle: Same State NG 1)” was tested, and the “apparent KD of MS2 coat protein” value (input ligand: FMN 200 uM) was 25.1 nM, the “apparent KD of MS2 coat protein” value [4] was 24.2 nM and the “apparent KD of MS2 coat protein” value (input ligand: none) was 30 nM.

For “AUUUAACAAGCUUUUUGCUCGUCUUAUAAACAUGAGGAUCACCCAUGUAAUAGCGUGAGAGUAAUUAUAUUAAUUAU [JMF 101] (puzzle: Sensor for hsa-mir-208a)”, the “apparent KD of MS2 coat protein” value [1] was 14.7 nM, the “apparent KD of MS2 coat protein” value [2] was 36 nM and the “apparent KD of MS2 coat protein” value [3] was 14.7 nM.

With “GUAUAACAUGAGGAUCACCCAUGUCAUCUAAGUCGAGGAUAUGGGAAUUAAUUAAUUAAACCAGAAGGCGAAAAUG [Mat - Same State 1 - D93] (puzzle: Same State 1)” the “apparent KD of MS2 coat protein” value [1] was 48.2 nM, the “apparent KD of MS2 coat protein” value [2] was 291 nM and the “apparent KD of MS2 coat protein” value [3] was 300 nM.

In the case of “GUGCGGGUGCCACAGGAUAUACGUGGAUCGACAUGAGGAUCACCCAUGUAUAUCCUAAUAAUUGCGUAGAAGGGUGGUCAGCCGU [Enbebiqu] (puzzle: Same State 2)”, the “apparent KD of MS2 coat protein” value [1] was 85.9 nM, the “apparent KD of MS2 coat protein” value [2] was 308 nM and the “apparent KD of MS2 coat protein” value [3] was 340 nM.

“GCGAGCGUACUUGCAGACAUGAGGAUCACCCAUGUAACUGGACAGGAUAUGGUACCGUUUCGGUACCAGAAGGGUUUAUAUGUC [JL SSNG3 3.52] (Eterna round: R96, puzzle: Same State NG 3)” was tested, and the “apparent KD of MS2 coat protein” value (input ligand: FMN 200 uM) was 40.4 nM, the “apparent KD of MS2 coat protein” value [4] was 25.7 nM and the “apparent KD of MS2 coat protein” value (input ligand: none) was 57.4 nM.

In the case of “GAGUGACAUGAGGAUCACCCAUGUAGAAUAGAACAAGGAUAUGUGGAAGGCGGAGGAGAGACAGAAGGUGUUGAAG [JR_SS1_Sub057] (puzzle: Same State 1)”, the “apparent KD of MS2 coat protein” value [1] was 49 nM, the “apparent KD of MS2 coat protein” value [2] was 46 nM and the “apparent KD of MS2 coat protein” value [3] was 67.7 nM.

“AUUGCUUACGCAGGAUAUGAUGUGGAAACUGCGUCAGAAGGGUGAACAGAAUCGUUGCAAGAAGACAUGAGGAUCACCCAUGUC [SameState NG1 #97] (Eterna round: R96, puzzle: Same State NG 1)” was tested, and the “apparent KD of MS2 coat protein” value (input ligand: FMN 200 uM) was 42 nM, the “apparent KD of MS2 coat protein” value [4] was 34.9 nM and the “apparent KD of MS2 coat protein” value (input ligand: none) was 39 nM.

For “GGAAAGAGGUAAGGAUAUGCAUGGCUGGGACAUGAGGAUCACCCAUGUUGGAGAAGAAAUCUAGGGUAGAAGGUACAAGGAAGG [AK SSNG2-V2-10] (Eterna round: R96, puzzle: Same State NG 2)”, the “apparent KD of MS2 coat protein” value (input ligand: FMN 200 uM) was 240 nM, the “apparent KD of MS2 coat protein” value [4] was 220 nM and the “apparent KD of MS2 coat protein” value (input ligand: none) was 203 nM.

“ACUCAGUACAAUUUAGAUCUACAUGAGGAUCACCCAUGUACUGAGGAUAUCAGCUCGAUUAGAGCUGAGAAGGCAGUUGUACUA [SSNG3/10-A2] (Eterna round: R96, puzzle: Same State NG 3)” was tested, and the “apparent KD of MS2 coat protein” value (input ligand: FMN 200 uM) was 82.3 nM, the “apparent KD of MS2 coat protein” value [4] was 161 nM and the “apparent KD of MS2 coat protein” value (input ligand: none) was 125 nM.

In the case of “GUAUCUACAGGUUUCUUUGCUCGUCUGAUACAUGAGGAUCACCCAUGUUAUAGCCCUGUGCUUGCGCAGGGCUGAGG [Sensor for hsa-mir-208a ( MOD of Tearor v.3 )] (puzzle: Sensor for hsa-mir-208a)”, the “apparent KD of MS2 coat protein” value [1] was 34.1 nM, the “apparent KD of MS2 coat protein” value [2] was 36.6 nM and the “apparent KD of MS2 coat protein” value [3] was 37 nM.
